From PMC3954831, “Protection of Cardiomyocytes from the Hypoxia-Mediated Injury by a Peptide Targeting the Activator of G-Protein Signaling 8” (PLoS ONE, 2014)
Each block holds one binder with its values, some of them ahead of it.

Target: T1, Recombinant human Gβ1γ2 (human, UniProt P62873 1-340; P59768 1-71)
T1 construct: G-protein beta 1 subunit, human, recombinant; G-protein gamma 2 subunit, human, recombinant; Preformed heterodimer bought as such; detected by an anti-Gβ antibody; also called Gβγ; purified Gβγ; source: bought: Calbiochem-Merck Millipore (recombinant)
Assay: pull-down; competition: GST-AGS8-C (100 nM) incubated with recombinant human Gβ1γ2 (10 nM) in the presence of rising doses of peptide CP1 or CP9, adsorbed to a glutathione matrix; immunoblot with densitometry, n = 6
Conditions: both partners purified

- IC50: 2.77 µM
B1: AGS8-peptide CP9 (peptide)
peptide: SFVIVDWNKAIPGDVVTGYLVYSASYEDFI
notes: About 97% HPLC purity; source: synthetic peptide (Invitrogen)

- IC50: 6.73 µM
B2: AGS8-peptide CP1 (peptide)
peptide: APRNITVVAMEGCHSFVIVDWNKAIPGDV
notes: as for B1
